Measured values reported in patent US20190119362A1 (KANEKA, published 2019).
Residue numbers refer to the chain shown, from its start. Where two headings read alike, the source gives them in different places.

B1: LB1t-Wild.1d (other)
chain: GPLGSEEVTIKANLIFANGSTQTAEFKGTFEKATSEAYAYADTLKKDNGEYTVDVADKGYTLNIKFAG
notes: also called B1 domain
B2: LC1t-Wild.1d (other)
chain: GPLGSEEVTIKANLIFADGSTQNAEFKGTFAKAVSDAYAYADALKKDNGEYTVDVADKGLTLNIKFAGK
notes: also called C1 domain
B3: LC4t-Wild.1d (other)
chain: GPLGSEEVTIKVNLIFADGKTQTAEFKGTFEEATAEAYRYADLLAKVNGEYTADLEDGGYTINIKFAGK
notes: also called C4 domain
B4: LB5t-Wild.1d (B5 domain of PpL 312 with deletion of N-terminal region) (other)
chain: GPLGSEQVTIKENIYFEDGTVQTATFKGTFAEATAEAYRYADLLSKEHGKYTADLEDGGYTINIRFAG
B5: LB3t-Wild.1d (other)
chain: GPLGSEEVTIKANLIYADGKTQTAEFKGTFEEATAEAYRYADLLAKENGKYTVDVADKGYTLNIKFAG
notes: also called B3 domain
B6: LB4t-Wild.1d (other)
chain: B5 chain with E31A, V53A, V55L, A56E, K58G, L62I, K65R
notes: also called B4 domain

How the values were obtained:
Experiment in all cases: SPR (Biacore 3000), Fab immobilized on CM5, peptide as analyte, 1:1 fit, 25 C
[1] = biological target: T1, aTNFa-Fab (Fab fragment of Infliximab) (Chimeric antibody/IgG1κ)
T1 construct: domain: Fab fragment; also called Infliximab Fab; Remicade Fab
Experimental: (§1) The IgG-Fab was immobilized on a sensor tip CM5 by amine coupling method using N-hydroxysuccinimide (NHS) and N-ethyl-N′-(3-dimethylaminopropyl)carbodiimide hydrochloride (EDC), and ethanolamine was used for blocking. All of the sensor tip and reagents for immobilization were manufactured by GE Healthcare Bioscience. The IgG-Fab solution was diluted to about 10 times by using a buffer for immobilization (10 mM CK₃COOH—CH₃CONa, pH 4.5), and the Fab was immobilized on the sensor tip in accordance with the protocol attached to the Biacore 3000. In addition, a reference cell as negative control was also prepared by activating another flow cell on the tip with EDC/NHS and then immobilizing human serum albumin manufactured by Wako Pure Chemical Corporation. […] Binding response curves at the time of addition (association phase, for 1 minute) and after the addition (dissociation phase, for 1 minute) were sequentially obtained at a measurement temperature of 25° C. After each measurement, about 20 mM NaOH was added for washing. With respect to the obtained binding response curve from which the binding response curve of the reference cell was subtracted, a fitting analysis was conducted by 1:1 binding model using a software included in the system, “BIA evaluation”, and an affinity constant (KA=kₒₙ/koff) for human IgG-Fab was calculated.

[2] = biological target: T1, aTNFa-Fab (Fab fragment of Infliximab); remark: listed apart in the source
Experimental: as §1

[3] = biological target: T1, aTNFa-Fab (Fab fragment of Infliximab); remark: listed apart in the source
Experimental: as §1

Binder | Ka [1] | koff [1] | kon [1] | Ka [2] | koff [2] | kon [2] | also measured
B1 | 30000 M⁻¹ | 0.481 s⁻¹ | 10000 M⁻¹ s⁻¹ |  |  |  | 
B2 |  |  |  | 200000 M⁻¹ | 0.152 s⁻¹ | 20000 M⁻¹ s⁻¹ | 
B3 |  |  |  | 20000 M⁻¹ | 0.397 s⁻¹ | 10000 M⁻¹ s⁻¹ | 
B4 |  |  |  |  |  |  | Ka [3]: 700000 M⁻¹; koff [3]: 0.215 s⁻¹; kon [3]: 150000 M⁻¹ s⁻¹
B5 | 100000 M⁻¹ | 0.305 s⁻¹ | 20000 M⁻¹ s⁻¹ |  |  |  | 
B6 | 300000 M⁻¹ | 0.239 s⁻¹ | 70000 M⁻¹ s⁻¹ |  |  |  | 
